What was measured:
[1] = target: T1, TIGIT-biotin (TIGIT:CD155 Homogeneous Assay Kit, #72029) (human, UniProt Q495A1 22-141, limits assumed, biotin (site not stated)); assay: AlphaLISA competition: TIGIT-biotin with antibody, then histidine-tagged CD155 as competitor
T1 construct: Kit reagent; also called human TIGIT
T1 chain: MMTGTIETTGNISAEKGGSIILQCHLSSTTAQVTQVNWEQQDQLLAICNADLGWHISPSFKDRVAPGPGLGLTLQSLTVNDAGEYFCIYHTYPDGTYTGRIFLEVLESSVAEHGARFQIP
Method: To evaluate inhibition of binding of TIGIT to CD155 by anti-TIGIT antibodies, AlphaLISA assays were performed using a TIGIT:CD155 Homogeneous Assay Kit (PBS Biosciences, #72029). Aliquots (6 μl) of solution containing TIGIT-biotin (final concentration 0.2 ng/μl) and 4-fold serial dilution of the test antibodies (final volume 2 μl) were added into a 384-well plate. The plates were covered with a lid and incubated at room temperature for 30 min. Then, 2 μl of histidine-tagged CD155 were added (final concentration 0.05 ng/μl) into each well and incubated at room temperature for 60 min. Finally, aliquots (5 μl) of streptavidin-conjugated donor beads (final concentration 10 μg/ml) and 5 μl of anti-His tag acceptor beads (final concentration 20 μg/ml) were added and the plate was incubated at room temperature for 30 min in the dark. AlphaLISA signals were measured on an EnSpire Alpha 2390 (Perkin-Elmer Life Sciences). 15A6 (U.S. Pat. No. 10,189,902) and MBSA43 (Thermo Fisher Scientific, #16-9500-82) were used as reference antibodies.
These antibodies were selected for further functional studies.

[2] = target: T2, human TIGIT expressed on cells (TIGIT/Jurkat cells; MJ[G11] cells; PBMC T cells) (human, UniProt Q495A1 22-244); assay: flow cytometry on TIGIT/Jurkat cells
T2 construct: The cell line is named under assay; also called human TIGIT-expressing Jurkat cells
T2 sequence: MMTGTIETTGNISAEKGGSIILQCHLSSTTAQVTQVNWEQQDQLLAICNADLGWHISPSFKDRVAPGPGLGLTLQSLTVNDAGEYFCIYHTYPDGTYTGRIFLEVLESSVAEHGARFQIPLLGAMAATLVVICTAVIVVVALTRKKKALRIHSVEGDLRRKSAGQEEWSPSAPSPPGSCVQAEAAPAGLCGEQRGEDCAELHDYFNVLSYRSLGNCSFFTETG
Method: Sequential dilutions of Protein A column-purified 7D4, 2C9, and 3A9 antibodies were separately incubated with 5×10⁵ of human TIGIT-expressing Jurkat cells (TIGIT/Jurkat) in 50 μl of FACS buffer (0.2% BSA in Dulbecco's phosphate-buffered saline (DPBS) containing 0.09% sodium azide) on ice for 1 hour. After washing, the cells were stained with anti-mouse IgG conjugated with PE dyes and antibody binding strength was analyzed by flow cytometry.

[3] = target: T3, recombinant mouse TIGIT IgV domain (mouse, UniProt P86176 29-145); assay: ELISA on coated recombinant TIGIT IgV domain
T3 construct: Made in NS0 cells, purified on Strep-Tactin XT; Biotinylated for phage panning; also called biotinylated mouse TIGIT IgV domain
T3 sequence: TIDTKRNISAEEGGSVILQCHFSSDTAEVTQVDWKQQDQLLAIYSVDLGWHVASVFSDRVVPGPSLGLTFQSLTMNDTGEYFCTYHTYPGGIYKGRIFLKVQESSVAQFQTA
Method: To assess species cross-reactivity of anti-TIGIT antibodies 7D4, 2C9, and 3A9, ELISA binding assays to human, cynomolgus monkey, and mouse TIGIT were performed. 1 μg/ml each of human, cyno (R&D Systems, Inc., #9380-TG), and mouse TIGIT in 50 μl of DPBS were coated on 96-well plates at 4° C. for overnight. After washing the plates with phosphate-buffered saline containing 0.05% of Tween 20 (PBST), a sequential dilution of 7D4, 2C9, and 3A9 antibodies was added separately and the plates were incubated at 37° C. for 1 hour. After washing the plates three times with PBST, the plates were incubated with an anti-mouse Fey polyclonal antibody conjugated with horseradish peroxidase (HRP) at 37° C. for 1 hour. After washing the plates three times with PBST, 100 μl of 3,3′,5,5′-tetra-methylbenzidine (TMB) substrate (Thermo Fisher Scientific, #34018) were added into each well. After 5 to 10 min of color development, 50 μl of stop solution (2 N of HCl) were added into each well and plates were read by spectrophotometer at a wavelength of 450 nm.

[4] = target: T2, human TIGIT expressed on cells …; assay: flow cytometry competition on MJ[G11] cells; competitor DyLight 650-CD155-human Fc at 1.5 µg/ml
From the text: (§1) Anti-TIGIT antibodies, including hz7D4, and reference antibodies (15A6 and 1D3) were used to compete with CD155 for binding to cells expressing human TIGIT. MJ[G11] (American Type Culture Collection (ATCC), CRL-8294) is a CD3+CD4+T lymphoma cell line carrying human T cell leukemia virus (HTLV-I). MJ[G11] cells were characterized by immunostaining with regulatory T cell phenotypic antibody markers, including CD4, CD25, CD127, and FoxP3, and found to be a regulatory T cell-like cell line (FIG. 9A). Moreover, MJ[G11] cells express human TIGIT constitutively, as shown by immunostaining with PE-conjugated anti-human TIGIT, MBSA43 antibody (FIG. 9B). A sequential 3-fold dilution of anti-TIGIT antibodies was added to 5×10⁵ of human TIGIT-expressing Jurkat cells or 3×10⁵ of MJ[G11] cells in 50 μl FACS buffer (0.2% BSA in DPBS containing 0.09% sodium azide) and incubated on ice for 30 min. Then, 10 μl of DyLight 650-conjugated CD155-human Fc fusion protein were added to the cells, to reach a final concentration of 1 μg/ml for human TIGIT-Jurkat cells and 1.5 μg/ml for MJ[G11] cells, and incubated for 30 min at 4° C. Cells were washed and analyzed by a FACSCalibur cytometer (Becton Dickinson). IC₅₀ values were calculated based on normalized median fluorescence intensity (MFI) values. […]

[5] = target: T2, human TIGIT expressed on cells …; assay: flow cytometry competition on TIGIT/Jurkat cells; competitor DyLight 650-CD155-human Fc at 1 µg/ml
From the text: as §1

cyno TIGIT IgV domain = target: T4, cyno TIGIT IgV domain (cynomolgus monkey); assay: phage display panning on biotinylated cyno TIGIT IgV domain
T4 construct: Biotinylated for phage panning; also called biotinylated cyno TIGIT IgV domain; cynomolgus monkey TIGIT
T4 sequence (chain, as listed by the source limits assumed): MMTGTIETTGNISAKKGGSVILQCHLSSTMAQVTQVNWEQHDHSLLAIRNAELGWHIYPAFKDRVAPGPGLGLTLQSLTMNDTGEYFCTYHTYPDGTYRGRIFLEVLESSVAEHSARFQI
Method: (§2) The phages were captured by incubation with 50 μl of M280 streptavidin magnetic beads (Thermo Fisher Scientific) for 15 min. Non-specific phages were eliminated by ten washes with PBS/0.1% Tween-20, followed by 10 washes with PBS for 5 min each. Bound phages were eluted with 0.1 M glycine (pH 2.0), neutralized with 1 M Tris-HCl (pH 8.0) and re-infected into log-phase TG1 cells. In the second panning round, phages (10⁹ cfu) were used against 0.1 nM of the biotinylated cyno TIGIT IgV domain.
(§3) The nucleotide sequences of the phage clones that bind to both human and cyno TIGIT IgV domains were determined. All heavy chain CDR3 (HCDR3) clones contain the wild type HCDR3 amino acid sequence of […] (SEQ ID NO: 3). Two light chain CDR3 (LCDR3) clones screened by the light chain library, designated 1A11 and 1E3, contain LCDR3 amino acid sequences of […] (SEQ ID NO: 23) and […] (SEQ ID NO: 24), respectively.

[6] = target: T5, recombinant human TIGIT IgV domain (human, UniProt Q495A1 22-141, limits assumed); assay: phage display panning on biotinylated human TIGIT IgV domain
T5 construct: Made in NS0 or Expi293F cells, purified on Strep-Tactin XT; Biotinylated for phage panning; also called human TIGIT IgV protein; native (Nat) form human TIGIT protein
T5 chain: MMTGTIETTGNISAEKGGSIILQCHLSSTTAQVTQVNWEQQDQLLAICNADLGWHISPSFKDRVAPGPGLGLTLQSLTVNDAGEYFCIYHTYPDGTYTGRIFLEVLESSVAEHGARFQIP
Method: as §2, §3

B1: 7D4 (antibody, V domains shown)
VH: QVQLKHSGAELVRPGTSVKMSCKASGYTFTNYWIGWAKQRPGHGLEWIGDIYPGSSFTNSNEKFKGKATLTADKSSSTAYMQFSSLTSEDSAIYYCAKLGRGYWYFDVWGTGTSVTVSA
VL: DIVLTQSPAIMSASLGEEITLTCSASSSVSYIHWYQQKSGTSPKLLIYTTSNLASGVPSRFSGSGSGTFYSLTISSVEAEDAADYYCHQWSRYPTFGGGTKLEIK
notes: Mouse monoclonal antibody from hybridoma clone 7D4, Protein A purified; also called anti-TIGIT monoclonal antibody 7D4; parental mouse 7D4 antibody
IC50 [1]: 0.32 nM | Kd [2]: 0.27 nM | EC50 [3]: 10.5 nM

B2: hz7D4 hIgG1 (antibody, V domains shown)
VH: EVQLVQSGGGLVKPGGSLRLSCAASGYTFTNYWIGWVRQTPGKGLEWVGDIYPGSSFTNSNEKFKGRFTISADKSKNTAYLQMNSLRAEDTAVYYCARLGRGYWYFDVWGQGTLVTVSS
VL: DIVLTQSPATLSASLGERATLSCSASSSVSYIHWYQQKPGQAPKLLIYTTSNLASGVPSRFSGSGSGTDFTLTISSLEAEDFATYYCHQWSRYPTFGGGTKLEIK
notes: Human IgG1 (vector pFUSE-CHIg-hIG1) with human kappa constant region, made in CHO-S cells; also called humanized 7D4; hz7D4 human IgG1
IC50 [4]: 0.3 nM | IC50 [5]: 0.2 nM

B3: 1A11 scFv phage clone (scFv, V domains shown)
VH: EVQLVQSGGGLVKPGGSLRLSCAASGYTFTNYWIGWVRQTPGKGLEWVGDIYPGSSFTNSNEKFKGRFTISADKSKNTAYLQMNSLRAEDTAVYYCARLGRGYWYFDVWGQGTLVTVSS
VL: DIVLTQSPATLSASLGERATLSCSASSSVSYIHWYQQKPGQAPKLLIYTTSNLASGVPSRFSGSGSGTDFTLTISSLEAEDFATYYCQLFRSGSAFGGGTKLEIK
binding result (cyno TIGIT IgV domain): binds | binding result [6]: binds

Reference: patent US20230416362A1 (INDUSTRIAL TECHNOLOGY RESEARCH INSTITUTE, published 2023)
